Assay: label from the status in PepcDB records

**Q.** Which protein production does the source give for “MKTVLAFGDSLTWGADPATGLRHPVEHRWPDVLEAELAGKAKVHPEGLGGRTTCYDDHAGPACRNGARALEVALSCHMPLDLVIIMLGTNDIKPVHGGRAEAAVSGMRRLAQIVETFIYKPREAVPKLLIVAPPPCVAGPGGEPAGGRDIEQSMRLAPLYRKLAAELGHHFFDAGSVASASPVDGVHLDASATAAIGRALAAPVRDILG” here?
**A.** not failed

**Q.** With “MKVAVLDFGKTNSKLFVFGQDGGILDERRTQPKWTHQDGFSVLDEAALHDWALGAVTEAVENHGVEGVMVSGHGCTFALVDDAALTHPILDYEQEPPAEIAARIDHRIPDFAETFSPRLPLGFNYGRHMLWVQEVDPDAFAAAKSILGYPQYWSWRLGGRPVSEVSYLGCHSHLWAPRSQDFSSLVDAEGWRGQMPAFARAGAVIGERRLGSSSRPIAIHNGVHDSNAALHAYRLEHHHHHH” as the sequence, how does the protein production read?
**A.** not failed

**Q.** With “MKVDVDEKTYIITMANDITKLYEENKRNLHYSITDPLTGAYNRKYLNDRFDIFIGDYIVLIDLDNFKMINDYEGHNVGDKILCDFVSLLNKELINSTSIIRLGGDEFIVIFSSDVDKNYVYSQLEALRENFLKVFSKYKYLSFSYGVDTVKRNLKLTIVELDKKMYKNKEKNKKKFDKNLEHHHHHH” as the sequence, how does the protein production read?
**A.** not failed

**Q.** For “MKVEEILEKALELVIPDEEEVRKGREAEEELRRRLDELGVEYVFVGSYARNTWLKGSLEIDVFLLFPEEFSKEELRERGLEIGKAVLDSYEIRYAEHPYVHGVVKGVEVDVVPCYKLKEPKNIKSAVDRTPFHHKWLEGRIKGKENEVRLLKGFLKANGIYGAEYKVRGFSGYLCELLIVFYGSFLETVKNARRWTRRTVIDVAKGEVRKGEEFFVVDPVDEKRNVAANLSLDNLARFVHLCREFMEAPSLGFFKPKHPLEIEPERLRKIVEERGTAVFAVKFRKPDIVDDNLYPQLERASRKIFEFLERENFMPLRSAFKASEEFCYLLFECQIKEISRVFRRMGPQFEDERNVKKFLSRNRAFRPFIENGRWWAFEMRKFTTPEEGVRSYASTHWHTLGKNVGESIREYFEIISGEKLFKEPVTAELCEMMGVKD”, which protein production is on record?
**A.** not failed

**Q.** For “MKVELPQGGYQGLAGDGVVEFRGVPFALPPVGELRFKAPRPLPDSDRSVNADRYPLPSLQVKNPLMGVEDSGEDCLYLNIWVPEGEGPFPVMLWYHGGGYIAGSVSQPLYNGAALAASQKVVVVHAAYRLGAHGFADFATIAPELEADSNLGLRDQVAALEWVNRHIEAFGGRPDRVTLFGESAGGFSVATLMATPRARPLFQAAIVQSGAGDFALAPEEVAKVTSAFVEALPGDGSAADKLRQADPKAWIAAQNQALRTLVKRGLRDTTPQFAMNFQPMVDGDLLPRLPVDAIADGEARDIALMASVCRDEYHFFQYAGPMAGFPSVEELRRFDEAEILRRFQRALPQHGQQALSYYQRTVTPDPQRSNMDWFSAMETDRLFRVPTLRLLDAQAAHRDDTRGLQFTWTSQQFGVPMGACHVIDVPFVFGVTDTPAGMFFTGGGEPARALAAEVQKVWGDFAHGRAVQGPAWKDTRRVRQFGPGDAEAALLDADGEALWADIIPVPGTAKPGQGA”, which protein production is on record?
**A.** not failed

**Q.** With “MKVIETKYNGKLEVAEDRLIAFDQGIPAFEDEKEFVLLPFAAGTPYYTLQSTKTVDLAFIIVNPFSFFPEYRVKLPEATIVQLNITNENDVAIFSLLTVKEPFSETTVNLQAPIVINANKQMGKQLVLGDTAYDRKQPLFQKELVLAKEAK” as the sequence, how does the protein production read?
**A.** not failed

**Q.** With “MKVIGINGSSRKDGNTAILIQTVFEELTKEGIETELIQLSGKNIEGCKACWACHKNRNKQCVITDDFFNECFAKMLVSDGIILGSPVYSAGVTSQMKALIDRASMVLAGNRGLFKHKVGASVVAARRGGAISAFGTLNNFLHSKEMFLVGSSYWNMAYGNAIGEVEQDQEGIDNMKNLGQNMAWILKKIHNS” as the sequence, how does the protein production read?
**A.** failed

**Q.** Which protein production does the source give for “MKVINVDVAIIGTGTAGMGAYRAAKKHTDKVVLIEGGAYGTTCARVGCMPSKLLIAAADASYHASQTDLFGIQVDRISVNGKAVMKRIQTERDRFVGFVVESVESFDEQDKIRGFAKFLDEHTLQVDDHSQVIAKRIVIATGSRPNYPEFLAAAGSRLLTNDNLFELNDLPKSVAVFGPGVIGLELGQALSRLGVIVKVFGRSGSVANLQDEEMKRYAEKTFNEEFYFDAKARVISTIEKEDAVEVIYFDKSGQKTTESFQYVLAATGRKANVDKLGLENTSIELDKKNSPLFDELTLQTSVDHIFVAGDANNTLTLLHEAADDGKVAGTNAGAYPVIAQGQRRAPLSVVFTEPQVASVGLSLRQIEDLYADQDAANYVVGQVSFEGQGRSRVMGKNKGLLNVYADRTSGEFLGAEMFGPAAEHIGHLLAWARQQQMTVQAMLTMPFYHPVIEEGLRTALRDAQQKLAIEKHDMNEFIMTHDNAMKLVI” here?
**A.** not failed

**Q.** With “MKVITSLISSILLKFIHKDFHEIYARMSLLDRFLLLIVHGVDKMVPWHKLPVFLGLTYLEVRRHLHQQYNLLNVGQTPTGIRFDPANYPYRTADGKFNDPFNEGVGSQNSFFGRNCPPVDQKSKLRRPDPMVVATKLLGRKKFIDTGKQFNMIAASWIQFMIHDWIDHLEDTHQIELVAPKEVASKCPLSSFRFLKTKEVPTGFFEIKTGSQNIRTPWWDSSVIYGSNSKTLDRVRTYKDGKLKISEETGLLLHDEDGLAISGDIRNSWAGVSALQALFIKEHNAVCDALKDEDDDLEDEDLYRYARLVTSAVVAKIHTIDWTVQLLKTDTLLAGMRANWYGLLGKKFKDSFGHAGSSILGGVVGMKKPQNHGVPYSLTEDFTSVYRMHSLLPDQLHILDIDDVPGTNKSLPLIQEISMRDLIGRKGEETMSHIGFTKLMVSMGHQASGALELMNYPMWLRDIVPHDPNGQARPDHVDLAALEIYRDRERSVPRYNEFRRSMFMIPITKWEDLTEDEEAIEVLDDVYDGDVEELDLLVGLMAEKKIKGFAISETAFYIFLIMATRRLEADRFFTSDFNETIYTKKGLEWVNTTESLKDVIDRHYPDMTDKWMNSESAFSVWDSPPLTKNPIPLYLRIPS” as the sequence, how does the protein production read?
**A.** failed

**Q.** With “MKVKSISRFFSMKKVTLSFVTLFIGVGTIGSYNQYADASMKTQQTHVTKSSPTQKTTSNFKRSVKDTSVKSRATSIKRATSTKQAISPKTSSTKKTTIAKKSTTVNKTRTTTKTQPTIRKSSTTSTRSKTMPTSVKRTTSHKATTVSPTSKAKISTKTQQSTKSHTTSVKKNTTQLSKTKSPSTSTKSKTVQSSTTKAQPTLSTQVSTTTKAKQFSTPTTSKTDSSKSLVSLASTERKIDKYQSMTQLEKETTEGVDWRKDTKNTGNQVLIVAPHGGSIEQGTTELTKALADKGNYDYYSFEGIRPKNNSELHVTSTHYDDPTLNQMIKNRTATISIHGASGSEEIIYLGGPRSDLRNAIEKQLVARGFTVKVPPEYLGGQNNKNFINREDNNTGVQLELTTALRKAFFKNGDTSTKNRTNKENWTPTMEEFINALYEGINQTYSLEHHHHHH” as the sequence, how does the protein production read?
**A.** failed

**Q.** With “MKVLETATQVLEWTAHDTQLLVVAALGIALIVVLIAKLKLHPFLALVLGSAFVGLASGVELGKVITNFEDGVGGVLKEVGLLIALGAMLGKLLADSGGANRVVDTLLAKASGNKLVWMITLVAVIIGLPMFFEIGLVLLLPVIVLVTQRSKMKLMRIAIPALAGLSVLHGLVPPHPGPLIAISAVKAELGTTLGLGILVAIPTVIICGPLFSRLAARWVPVDAPAVAGGIDTQHAADLSEVKRQPSFLVTLLTIIFPVVLMLLKALGGIIWPNPETAPAIRIFFDFVGQPLVAMTLAVLLAIVTFGYAVGFTGSRITAKLGESLGPIAAILLIVGAGGGFKQTLIGAGVGDAVKKWAEGANMSVLVLGFIVAVALRLATGSATVATVTAAGIVAPLASSLSPTHAALLALAIGAGSLFLSHVNDAGFWLVKELFGLTVGQTFKTWSVMETLISVVGFGFVMLLSLVL” as the sequence, how does the protein production read?
**A.** failed

**Q.** For “MKVLKPGLLTTVQDIGRTGYQKYGVLASGAMDTVSLRIANLLIGNGENEAGLEITMMGPGPSFHFSKQTLIAVTGADFTLRINDEEAPLWKPVLIKENSTVSFGPCKLGSRAYLAAAGGIEVPAVMESKSTYVRGSIGGLHGRALQKEDELNIGEMSALSQTILSRLSSQLAHTVIGSTDVVSQPWEISVIEDESRHSSAGGISICLLHSRIKNAFSEEAFRVTPQSDRMGYRLKGEPLDLTAPLEMVSAAVSFGAAQMPPAGKPYYPCLQDRQDDWPAIRGIAHIISADLPIVSQIMPGEHVQFEPVSLQEAEALAVEREQHIKELKTRMKMEWLT”, which protein production is on record?
**A.** not failed

**Q.** With “MKVLLANPRGFCAGVDRAIEIVKRTIDMLGTPIYVRHEVVHNRFVVDDLKQRGAIFVEELHQVPDGATVIFSAHGVSQAVRRQAAQRGLKVFDATCPLVTKVHLDVARHCRTGRDMILIGHAGHPEVEGTMGQWDQERGTGRIYLVENIDDVATLHVAQPHHLAYTTQTTLSVDDTRNIIDALRQRFPTIQGPKNNDICYATQNRQDAVRELARECDLVLVVGSPNSSNSNRLSELAQREGVASYLIDSAAEIDPAWVIDKHHIGVTAGASAPQVLVDGVLARLYELGATSVSEHSGKPESMVFALPKALRLQLVD” as the sequence, how does the protein production read?
**A.** failed

**Q.** Which protein production does the source give for “MKVLLIQPPSSTAFMDKVYMYEPLGLEYLGAGLQEDGHEVLLLDARLEPDFEKAFHSFQPDIVGITGYTNHLNIVKAIAARFKSINPEVFIIVGGHHATVKPADYNDQAIDLIIIGEGVFTLRQVLKHKESLLPFEDIPGLAIPGAVMKFTAERPYTPLDDLPFPDRSLTARYRNHYFSDWMKPIASIRTSLGCFGRCNFCALWSITNGKYLQRNPERIVAELQGIQEEIVFFCDDESMCDTRRMDQLADLIQEAGIRKKYFLYGRVDTIVKHPELFAKWKNIGLIQVFVGFESFSDERLQGLNKNITVAQQEEAVKILNDLNIDIYASFVIDPSFTRQEFTQLIAYTRKLNIAYAALSVLTPLPGTALYEQNKDRLLTHDPKFFDFMHTVLPTALPLKQFYSEYARTLMKATPIPRYFRFIAKFDRQRRLSTMKELYGVVGDVRKGYQWHQAKES” here?
**A.** failed

**Q.** With “MKVNKRVLSIGLAISLIMAGAPNINALSSIEKIQGKDRYETAAKIAQKQTYENVVLVNTDNTLADGLSASGLAGTVKAPILLSQRNSIPSDTEKMLKDVKKVYIIGTEDSIGKSVENELKQKGIEVKRIGGNDRIETSYLIAKEIASIKPIDKVFITNGYTGEADAMSASSVASRDGAPIILTNGKNVPFEKKEGVQCYALGSEEIISNDLVKKTNSVRLAGEDRFETNKKVIKHFYSSAKEFYLSKGYQLVDAVAGSSIAKNAPIVLVDGNSDKSVLRSADKITALGGIDEKTLEQCLSASSLDASAPTITVGNLNIYQGDKFDISKLNIVAKDSNGNDLTPELIGNINTDKVGKYKVTIKATDIGGKTTSISVEVNVLEYKTNDMNSSEFKRMVSSEMYSLVNSYRKEKGKEPLQVSENLQGMANYWSKYMADKGEFAHVINGKNAAEVFSGGIRSEENIAFVPLTTKSTYTTKDAREVANVIFTVWKKSDKYNENMLSSKFAYTGFGLYILPDGQVYATQEFLNK” as the sequence, how does the protein production read?
**A.** failed

**Q.** With “MKVRAIKSFLVTTMAMTFLVSMGQGSILTKANTINNMKYVTEAFGAIPTEEQVSYQKEELTAFIHFGVNTFTGREWGDGTENPEIFNPTNLDADQWVKTLADAGFGRVILTAKHHDGFCLWDSAYTKHDVASSPWKNGKGDVVKEVSEACAKYNIKFGVYLSPWDQNSEHYGEGNGGDYNEFYMNQLRELLTNYGPIAEVWMDGAKGSNVKQEYNFEEWFALIKELQPECLIFSPQGPDIRWIGNEKGYAGEPCWSTIDIEKMKERENPTYLNNGEEGGPDWVVGESDVSIRPGWFYHESQDNEVKSLEKMMDIYFKSIGRNSVLLLNVPPNKEGKLHENDVNRLKEFGETIKELFNDDLALNKEVIVDGFANRDETYGANKIVDGDYDTYWAPDNSSKTGTIEIDLGESKEFDVISLQEYIPLGQRVSSFNVEVLQGENWNKVYEGKTIGYKRLVRIAPTKGEKIRINITGSLEVPLINNVGVYKQPTSIELPSGPPAGLKVLNDDNKGNELEQFNFSDGWVYETIHGENDLGGDAHYTSKTNATVNIKFNGTKFFLSGTKDSGHGIMEISIDGENPVEVDLYSPNRKSKEIVFESEDLSDGEHEVTVKCTGRKNSSSRGTAAHIDGAYVLDNGGKGMVEFEKVGYEVSENIGTATFKVIRKGGSNGKLEVNYDTLAGTALNGVDYQTWSGTLAFNEGETEKTFDITIIDDKEKEEPKEFYLKLSDPIGGILGFNSRATVTINDDEQIK” as the sequence, how does the protein production read?
**A.** failed
